Data published in article PMC4091826 (Molecular Biology of the Cell, 2014).
No end group written: not given here.

T1: fluorescein-labeled P5 peptide (also: fluorescein label, position not given here)
T1 peptide: CALLLSAPRR


Experiments:
[1] = molecular target: T1, fluorescein-labeled P5 peptide; test: fluorescence polarisation
Ssc1 = test: Single-turnover basal ATPase assay, Ssc1; assay type: biochemical, S. cerevisiae; settings: 25°C, buffer A, versus wild type
yeast cells = test: Growth phenotype; assay type: cell-based, S. cerevisiae; settings: minimal medium or 5-FOA medium, serial dilutions

Molecule	substrate release upon ATP binding [1] [%]	fold increase in basal ATPase activity (Ssc1) [fold]	growth phenotype, in words (yeast cells)
G466E (protein, left off: His6, end not stated, state not stated) QSTKVQGSVIGIDLGTTNSAVAIMEGKVPKIIENAEGSRTTPSVVAFTKEGERLVGIPAKRQAVVNPENTLFATKRLIGRRFEDAEVQRDIKQVPYKIVKHSNGDAWVEARGQTYSPAQIGGFVLNKMKETAEAYLGKPVKNAVVTVPAYFNDSQRQATKDAGQIVGLNVLRVVNEPTAAALAYGLEKSDSKVVAVFDLGGGTFDISILDIDNGVFEVKSTNGDTHLGGEDFDIYLLREIVSRFKTETGIDLENDRMAIQRIREAAEKAKIELSSTVSTEINLPFITADASGPKHINMKFSRAQFETLTAPLVKRTVDPVKKALKDAGLSTSDISEVLLVGGMSRMPKVVETVKSLFGKDPSKAVNPDEAVAIGAAVQGAVLSGEVTDVLLLDVTPLSLGIETLGGVFTRLIPRNTTIPTKKSQIFSTAAAGQTSVEIRVFQEERELVRDNKLIGNFTLAGIPPAPKGVPQIEVTFDIDADGIINVSARDKATNKDSSITVAGSSGLSENEIEQMVNDAEKFKSQDEARKQAIETANKADQLANDTENSLKEFEGKVDKAEAQKVRDQITSLKELVARVQGGEEVNAEELKTKTEELQTSSMKLFEQLYKNDSNNNNNNNGNNAESGETKQ	–	11	lethal and unable to grow on 5-FOA medium
Q465A (protein, left off: His6, end not stated, state not stated) QSTKVQGSVIGIDLGTTNSAVAIMEGKVPKIIENAEGSRTTPSVVAFTKEGERLVGIPAKRQAVVNPENTLFATKRLIGRRFEDAEVQRDIKQVPYKIVKHSNGDAWVEARGQTYSPAQIGGFVLNKMKETAEAYLGKPVKNAVVTVPAYFNDSQRQATKDAGQIVGLNVLRVVNEPTAAALAYGLEKSDSKVVAVFDLGGGTFDISILDIDNGVFEVKSTNGDTHLGGEDFDIYLLREIVSRFKTETGIDLENDRMAIQRIREAAEKAKIELSSTVSTEINLPFITADASGPKHINMKFSRAQFETLTAPLVKRTVDPVKKALKDAGLSTSDISEVLLVGGMSRMPKVVETVKSLFGKDPSKAVNPDEAVAIGAAVQGAVLSGEVTDVLLLDVTPLSLGIETLGGVFTRLIPRNTTIPTKKSQIFSTAAAGQTSVEIRVFAGERELVRDNKLIGNFTLAGIPPAPKGVPQIEVTFDIDADGIINVSARDKATNKDSSITVAGSSGLSENEIEQMVNDAEKFKSQDEARKQAIETANKADQLANDTENSLKEFEGKVDKAEAQKVRDQITSLKELVARVQGGEEVNAEELKTKTEELQTSSMKLFEQLYKNDSNNNNNNNGNNAESGETKQ	–	2.25	viable at 30 °C but displayed temperature sensitivity at 34 and 37 °C
Ssc1 E467A suppressor S208 (E467A, D519G), purified (natural protein, S. cerevisiae, UniProt P0CS90 24-654, looked up) QSTKVQGSVIGIDLGTTNSAVAIMEGKVPKIIENAEGSRTTPSVVAFTKEGERLVGIPAKRQAVVNPENTLFATKRLIGRRFEDAEVQRDIKQVPYKIVKHSNGDAWVEARGQTYSPAQIGGFVLNKMKETAEAYLGKPVKNAVVTVPAYFNDSQRQATKDAGQIVGLNVLRVVNEPTAAALAYGLEKSDSKVVAVFDLGGGTFDISILDIDNGVFEVKSTNGDTHLGGEDFDIYLLREIVSRFKTETGIDLENDRMAIQRIREAAEKAKIELSSTVSTEINLPFITADASGPKHINMKFSRAQFETLTAPLVKRTVDPVKKALKDAGLSTSDISEVLLVGGMSRMPKVVETVKSLFGKDPSKAVNPDEAVAIGAAVQGAVLSGEVTDVLLLDVTPLSLGIETLGGVFTRLIPRNTTIPTKKSQIFSTAAAGQTSVEIRVFQGARELVRDNKLIGNFTLAGIPPAPKGVPQIEVTFDIDADGIINVSARDKATNKGSSITVAGSSGLSENEIEQMVNDAEKFKSQDEARKQAIETANKADQLANDTENSLKEFEGKVDKAEAQKVRDQITSLKELVARVQGGEEVNAEELKTKTEELQTSSMKLFEQLYKNDSNNNNNNNGNNAESGETKQ	> 50	–	–

More lines, main results first:

substrate release upon ATP binding [1] [%]	Molecule	fold increase in basal ATPase activity (Ssc1) [fold]	growth phenotype, in words (yeast cells)
> 50	Ssc1 E467A suppressor S205 (E467A, N508K), purified (natural protein, S. cerevisiae, UniProt P0CS90 24-654, looked up) QSTKVQGSVIGIDLGTTNSAVAIMEGKVPKIIENAEGSRTTPSVVAFTKEGERLVGIPAKRQAVVNPENTLFATKRLIGRRFEDAEVQRDIKQVPYKIVKHSNGDAWVEARGQTYSPAQIGGFVLNKMKETAEAYLGKPVKNAVVTVPAYFNDSQRQATKDAGQIVGLNVLRVVNEPTAAALAYGLEKSDSKVVAVFDLGGGTFDISILDIDNGVFEVKSTNGDTHLGGEDFDIYLLREIVSRFKTETGIDLENDRMAIQRIREAAEKAKIELSSTVSTEINLPFITADASGPKHINMKFSRAQFETLTAPLVKRTVDPVKKALKDAGLSTSDISEVLLVGGMSRMPKVVETVKSLFGKDPSKAVNPDEAVAIGAAVQGAVLSGEVTDVLLLDVTPLSLGIETLGGVFTRLIPRNTTIPTKKSQIFSTAAAGQTSVEIRVFQGARELVRDNKLIGNFTLAGIPPAPKGVPQIEVTFDIDADGIIKVSARDKATNKDSSITVAGSSGLSENEIEQMVNDAEKFKSQDEARKQAIETANKADQLANDTENSLKEFEGKVDKAEAQKVRDQITSLKELVARVQGGEEVNAEELKTKTEELQTSSMKLFEQLYKNDSNNNNNNNGNNAESGETKQ	–	–
> 50	Ssc1 E467A suppressor S207 (E467A, N508T), purified (natural protein, S. cerevisiae, UniProt P0CS90 24-654, looked up) QSTKVQGSVIGIDLGTTNSAVAIMEGKVPKIIENAEGSRTTPSVVAFTKEGERLVGIPAKRQAVVNPENTLFATKRLIGRRFEDAEVQRDIKQVPYKIVKHSNGDAWVEARGQTYSPAQIGGFVLNKMKETAEAYLGKPVKNAVVTVPAYFNDSQRQATKDAGQIVGLNVLRVVNEPTAAALAYGLEKSDSKVVAVFDLGGGTFDISILDIDNGVFEVKSTNGDTHLGGEDFDIYLLREIVSRFKTETGIDLENDRMAIQRIREAAEKAKIELSSTVSTEINLPFITADASGPKHINMKFSRAQFETLTAPLVKRTVDPVKKALKDAGLSTSDISEVLLVGGMSRMPKVVETVKSLFGKDPSKAVNPDEAVAIGAAVQGAVLSGEVTDVLLLDVTPLSLGIETLGGVFTRLIPRNTTIPTKKSQIFSTAAAGQTSVEIRVFQGARELVRDNKLIGNFTLAGIPPAPKGVPQIEVTFDIDADGIITVSARDKATNKDSSITVAGSSGLSENEIEQMVNDAEKFKSQDEARKQAIETANKADQLANDTENSLKEFEGKVDKAEAQKVRDQITSLKELVARVQGGEEVNAEELKTKTEELQTSSMKLFEQLYKNDSNNNNNNNGNNAESGETKQ	–	–
> 50	Ssc1 E467A suppressor S209 (E467A, K490R), purified (natural protein, S. cerevisiae, UniProt P0CS90 24-654, looked up) QSTKVQGSVIGIDLGTTNSAVAIMEGKVPKIIENAEGSRTTPSVVAFTKEGERLVGIPAKRQAVVNPENTLFATKRLIGRRFEDAEVQRDIKQVPYKIVKHSNGDAWVEARGQTYSPAQIGGFVLNKMKETAEAYLGKPVKNAVVTVPAYFNDSQRQATKDAGQIVGLNVLRVVNEPTAAALAYGLEKSDSKVVAVFDLGGGTFDISILDIDNGVFEVKSTNGDTHLGGEDFDIYLLREIVSRFKTETGIDLENDRMAIQRIREAAEKAKIELSSTVSTEINLPFITADASGPKHINMKFSRAQFETLTAPLVKRTVDPVKKALKDAGLSTSDISEVLLVGGMSRMPKVVETVKSLFGKDPSKAVNPDEAVAIGAAVQGAVLSGEVTDVLLLDVTPLSLGIETLGGVFTRLIPRNTTIPTKKSQIFSTAAAGQTSVEIRVFQGARELVRDNKLIGNFTLAGIPPAPRGVPQIEVTFDIDADGIINVSARDKATNKDSSITVAGSSGLSENEIEQMVNDAEKFKSQDEARKQAIETANKADQLANDTENSLKEFEGKVDKAEAQKVRDQITSLKELVARVQGGEEVNAEELKTKTEELQTSSMKLFEQLYKNDSNNNNNNNGNNAESGETKQ	–	–
